The results in this text go back to patent US20250295803A1, “5T4 ANTIBODY-DRUG CONJUGATES AND USES THEREOF” (EXELIXIS, INC., priority 2022, published 2025).

The target of test [1] is T1, biotinylated cynomolgus 5T4 with His-Avi tag (produced in-house) (cynomolgus monkey, UniProt Q4R8Y9 35-355, biotin on the Avi tag).
T1 construct: also called cyno 5T4; Cyno 5T4 Octet (bivalent); not shown: C-terminal 6-His-Avi tag
T1 sequence: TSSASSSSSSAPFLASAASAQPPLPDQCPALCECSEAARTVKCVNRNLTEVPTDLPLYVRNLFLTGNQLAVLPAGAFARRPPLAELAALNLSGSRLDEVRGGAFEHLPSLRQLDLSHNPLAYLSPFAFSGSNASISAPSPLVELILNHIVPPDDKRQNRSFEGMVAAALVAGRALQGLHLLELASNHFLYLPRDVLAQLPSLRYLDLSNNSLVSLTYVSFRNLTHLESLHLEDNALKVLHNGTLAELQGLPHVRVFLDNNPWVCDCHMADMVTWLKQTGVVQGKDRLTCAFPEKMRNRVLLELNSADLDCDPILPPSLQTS
The experiment in a line: Octet, biotinylated antigen on streptavidin biosensors, antibody at 500 nM (bivalent).

In test [2] the target is T2, biotinylated mouse 5T4 with His-Avi tag (produced in-house) (mouse, UniProt Q9Z0L0 32-361, biotin on the Avi tag).
T2 construct: also called Mouse 5T4 Octet (bivalent); not shown: C-terminal 6-His-Avi tag
T2 sequence: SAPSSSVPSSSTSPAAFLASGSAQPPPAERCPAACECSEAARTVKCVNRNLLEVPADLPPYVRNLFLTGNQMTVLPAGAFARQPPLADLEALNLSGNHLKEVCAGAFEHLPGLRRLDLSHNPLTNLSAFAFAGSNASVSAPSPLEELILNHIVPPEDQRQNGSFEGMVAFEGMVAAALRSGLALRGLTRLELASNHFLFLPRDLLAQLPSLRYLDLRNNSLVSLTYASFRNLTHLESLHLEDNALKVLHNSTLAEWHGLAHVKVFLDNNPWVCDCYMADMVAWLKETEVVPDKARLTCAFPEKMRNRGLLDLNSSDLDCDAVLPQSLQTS
Described as above.

Test [3] has as its target T3, cynomolgus 5T4 on cells (HEK-cyno-5T4, transfected HEK293 and CHO cells) (cynomolgus monkey, UniProt Q4R8Y9 35-420).
T3 construct: also called HEK-cyno-5T4 cells
T3 sequence: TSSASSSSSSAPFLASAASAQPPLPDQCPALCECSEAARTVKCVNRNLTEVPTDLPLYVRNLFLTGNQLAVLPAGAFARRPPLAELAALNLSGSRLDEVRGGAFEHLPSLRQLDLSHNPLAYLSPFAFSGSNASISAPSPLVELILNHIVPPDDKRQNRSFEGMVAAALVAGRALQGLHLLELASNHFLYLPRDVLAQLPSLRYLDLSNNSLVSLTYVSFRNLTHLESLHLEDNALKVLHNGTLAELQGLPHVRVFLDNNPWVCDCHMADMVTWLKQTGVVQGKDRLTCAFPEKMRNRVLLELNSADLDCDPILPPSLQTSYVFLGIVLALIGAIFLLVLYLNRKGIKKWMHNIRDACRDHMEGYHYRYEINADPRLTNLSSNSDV
The test can be described thus: flow cytometry on HEK-cyno-5T4 cells. In general terms: In flow cytometry, cells or beads pass a laser one at a time.

In test [4] the target is T4, mouse 5T4 on transfected HEK293 and CHO cells (mouse, UniProt Q9Z0L0 32-426).
T4 sequence: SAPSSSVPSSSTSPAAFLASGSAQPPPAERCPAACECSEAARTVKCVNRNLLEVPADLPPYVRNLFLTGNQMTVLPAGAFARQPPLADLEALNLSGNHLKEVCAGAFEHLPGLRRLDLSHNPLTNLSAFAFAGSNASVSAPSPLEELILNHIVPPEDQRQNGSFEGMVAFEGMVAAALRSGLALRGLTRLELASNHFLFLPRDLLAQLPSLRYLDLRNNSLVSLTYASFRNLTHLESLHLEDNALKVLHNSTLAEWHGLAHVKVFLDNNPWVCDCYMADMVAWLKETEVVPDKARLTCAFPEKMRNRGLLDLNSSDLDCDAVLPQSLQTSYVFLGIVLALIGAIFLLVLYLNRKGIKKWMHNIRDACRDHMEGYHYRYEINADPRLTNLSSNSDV
The experiment in a line: cell binding on transfected HEK293 and CHO cells.

Test [5] concerns the target T5, cyno 5T4 (Macaca fascicularis, UniProt Q4R8Y9).
T5 construct: made in house
T5 sequence (Q4R8Y9 35-355 limits assumed): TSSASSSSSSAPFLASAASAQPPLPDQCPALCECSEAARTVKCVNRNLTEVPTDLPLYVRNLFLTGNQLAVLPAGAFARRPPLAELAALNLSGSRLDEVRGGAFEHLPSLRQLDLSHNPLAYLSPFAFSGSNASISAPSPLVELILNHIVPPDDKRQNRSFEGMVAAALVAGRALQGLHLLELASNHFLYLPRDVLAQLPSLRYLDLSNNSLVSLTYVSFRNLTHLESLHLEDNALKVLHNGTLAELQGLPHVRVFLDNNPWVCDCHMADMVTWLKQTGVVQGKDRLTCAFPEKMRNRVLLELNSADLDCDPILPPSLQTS
The experiment in a line: Octet bivalent binding assay, cyno 5T4. Also on record: species or system cynomolgus monkey; key: +: An increase in signal during the association step above the negative control was considered as binding to the antigen. The note with it: 200 nM biotinylated antigen immobilized, antibody at 500 nM. An excerpt: (§1) Bivalent binding assays were employed to provide data on whether antibodies with VH/VL obtained by the phage display in Example 1 bound immobilized 5T4 from all three clinically relevant species: human, cynomolgus monkey (cyno), and mouse. For the bivalent binding and cross-reactivity assays the 5T4 human, cyno, and mouse antigens were synthesized using sequences from the protein database and expressed as biotinylated proteins using a his-avi tag and in vivo biotinylation with co-expressed BirA enzyme.
(§2) A standard Octet-based assay was used to determine qualitatively if each antibody bound to each antigen. For these assays, 200 nM biotinylated antigens were immobilized on streptavidin biosensors in 1× kinetic buffer (ForteBio). The loaded sensors were then dipped in wells containing an antibody of interest at 500 nM and the association binding signal was monitored. An increase in signal during the association step above the negative control was considered as binding to the antigen.

Test [6] addresses T6, mouse 5T4 (Mus musculus, UniProt Q9Z0L0).
T6 construct: made in house
T6 sequence (Q9Z0L0 32-361 limits assumed): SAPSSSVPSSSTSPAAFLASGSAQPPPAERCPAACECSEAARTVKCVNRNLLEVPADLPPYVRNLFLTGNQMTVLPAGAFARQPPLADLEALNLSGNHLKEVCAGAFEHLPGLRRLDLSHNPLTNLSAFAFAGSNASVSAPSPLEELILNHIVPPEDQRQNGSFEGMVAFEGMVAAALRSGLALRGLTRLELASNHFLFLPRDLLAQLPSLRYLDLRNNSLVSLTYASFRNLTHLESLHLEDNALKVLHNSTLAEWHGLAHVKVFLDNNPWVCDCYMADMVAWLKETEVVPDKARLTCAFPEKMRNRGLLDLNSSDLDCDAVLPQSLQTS
The experiment in a line: Octet bivalent binding assay, mouse 5T4. Set-up: key: +: An increase in signal during the association step above the negative control was considered as binding to the antigen. Particulars: 200 nM biotinylated antigen immobilized, antibody at 500 nM.
Source text: as §1, §2

Test [7] deals with T7, human 5T4 (Homo sapiens, UniProt Q13641).
T7 sequence (Q13641 32-355 limits assumed): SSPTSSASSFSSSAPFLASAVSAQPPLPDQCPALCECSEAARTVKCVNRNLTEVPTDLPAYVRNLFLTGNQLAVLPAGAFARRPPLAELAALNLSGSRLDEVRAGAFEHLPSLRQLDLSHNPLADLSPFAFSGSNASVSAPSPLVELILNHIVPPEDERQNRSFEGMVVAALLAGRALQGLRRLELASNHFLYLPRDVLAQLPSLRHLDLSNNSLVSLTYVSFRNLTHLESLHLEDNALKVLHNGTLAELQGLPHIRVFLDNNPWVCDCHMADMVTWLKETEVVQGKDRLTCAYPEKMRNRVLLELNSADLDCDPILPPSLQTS
The test can be described thus: Octet bivalent binding assay, human 5T4. The note with it: 200 nM biotinylated antigen immobilized, antibody at 500 nM. Set-up: The extracellular domain of human 5T4 was purchased from Acro Biosystems (biotinylated human 5T4 His-AVITAG™ Acro Cat No. TPG-H83Eb) or produced; made in house; key: +: An increase in signal during the association step above the negative control was considered as binding to the antigen.
Source text: as §1, §2
(In general: BLI is a label-free optical method that tracks binding on a fibre tip over time.)

B1: mAbA17 (antibody, V domains shown)
VH: EVQLVESGGGLVQPGGSLRLSCAASGFTFSRYWIHWVRQAPGKGLEWVAAIFPYSGSTLYADSVKGRFTISADTSKNTAYLQMNSLRAEDTAVYYCARSPSRSILPSGLDYWGQGTLVTVSS
VL: DIQMTQSPSSLSASVGDRVTITCRASQSVSSAVAWYQQKPGKAPKLLIYSASSLYSGVPSRFSGSRSGTDFTLTISSLQPEDFATYYCQQGDGSPYTFGQGTKVEIKR
notes: also called Antibody mAbA17
On to B1, for which the binding result in test [1] and in test [2] was “binds” in each case.

B2: mAbA4 (antibody, V domains shown)
VH: EVQLVESGGGLVQPGGSLRLSCAASGFTFSRYYIHWVRQAPGKGLEWVAFISPGGSYTYYADSVKGRFTISADTSKNTAYLQMNSLRAEDTAVYYCAREYYSMGVLDYWGQGTLVTVSS
VL: DIQMTQSPSSLSASVGDRVTITCRASQSVSSAVAWYQQKPGKAPKLLIYSASSLYSGVPSRFSGSRSGTDFTLTISSLQPEDFATYYCQQAYESPYTFGQGTKVEIKR
notes: also called Antibody mAbA4
Turning to B2, the binding result in test [3] is listed as “binds”; in test [4], “no binding”.

B3: mAbA17: 5T4 antibody comprising VH of SEQ ID NO:62 and VL of SEQ ID NO:63 (antibody, V domains shown)
VH: EVQLVESGGGLVQPGGSLRLSCAASGFTFSRYWIHWVRQAPGKGLEWVAAIFPYSGSTLYADSVKGRFTISADTSKNTAYLQMNSLRAEDTAVYYCARSPSRSILPSGLDYWGQGTLVTVSS
VL: DIQMTQSPSSLSASVGDRVTITCRASQSVSSAVAWYQQKPGKAPKLLIYSASSLYSGVPSRFSGSRSGTDFTLTISSLQPEDFATYYCQQGDGSPYTFGQGTKVEIK
modifications: Antibody mAbA17 VH Sequence; Antibody mAbA17 VL Sequence
As for B3, the “Cyno 5T4 Octet (bivalent)” value in test [5] is recorded as “+”. In test [6], the “Mouse 5T4 Octet (bivalent)” value was “+”. Moreover, the “Human 5T4 Octet (bivalent)” value in test [7] is recorded as “+”.

B4: mAbA15 (antibody, V domains shown)
VH: EVQLVESGGGLVQPGGSLRLSCAASGFTFSSYYIHWVRQAPGKGLEWVAYITSTGSYTEYADSVKGRFTISADTSKNTAYLQMNSLRAEDTAVYYCARYDRSTRYSGLDYWGQGTLVTVSS
VL: DIQMTQSPSSLSASVGDRVTITCRASQSVSSAVAWYQQKPGKAPKLLIYSASSLYSGVPSRFSGSRSGTDFTLTISSLQPEDFATYYCQQAYATPVTFGQGTKVEIKR
notes: also called Antibody mAbA15
Take B4: the binding result in test [3], in test [1] and in test [2] was “binds” each time.

B5: mAbA15: 5T4 antibody comprising VH of SEQ ID NO:44 and VL of SEQ ID NO:45 (antibody, V domains shown)
VH: EVQLVESGGGLVQPGGSLRLSCAASGFTFSSYYIHWVRQAPGKGLEWVAYITSTGSYTEYADSVKGRFTISADTSKNTAYLQMNSLRAEDTAVYYCARYDRSTRYSGLDYWGQGTLVTVSS
VL: DIQMTQSPSSLSASVGDRVTITCRASQSVSSAVAWYQQKPGKAPKLLIYSASSLYSGVPSRFSGSRSGTDFTLTISSLQPEDFATYYCQQAYATPVTFGQGTKVEIK
modifications: Antibody mAbA15 VH Sequence; Antibody mAbA15 VL Sequence
With B5, the “Cyno 5T4 Octet (bivalent)” value in test [5] was “+”. In addition, the “Mouse 5T4 Octet (bivalent)” value in test [6] is “+”. Moreover, the “Human 5T4 Octet (bivalent)” value in test [7] is recorded as “+”.
